The text below walks through data of patent US10208288B2, “Differentiation of human embryonic stem cells into pancreatic endocrine cells” (Janssen Biotech, Inc., priority 2012, dated 2019).

The test concerns cells of the human embryonic stem cell line H1 differentiated to stage 5. Put plainly: Real-time PCR of pancreatic endoderm/endocrine genes after factors spiked into stage 5 media. In kind it is cell-based. As to the method:
Cells of the human embryonic stem cell line H1 (hESC H1, passage 40) were seeded as single cells at 1×10^5 cells/cm^2 on MATRIGEL™ (1:30 dilution; BD Biosciences, NJ)-coated dishes in mTeSR®1 media (StemCell Technologies, Vancouver, Canada) supplemented with 10 μM of Y27632 (Rock inhibitor, Catalog No. Y0503, SigmaAldrich, St. Louis, Mo.). Forty-eight hours post seeding, cultures were washed in incomplete PBS (phosphate buffered saline without Mg or Ca). Cultures were differentiated into pancreatic endoderm/endocrine lineages as follows: • a) Stage 1 (Definitive Endoderm (DE)—3 days): Cells were cultured for one day in stage 1 media: MCDB-131 medium (Catalog No. 10372-019, Invitrogen, Carlsbad, Calif.) supplemented with 0.1% fatty acid-free BSA (Catalog No. 68700, Proliant, Ankeny, Iowa), 0.0012 g/ml sodium bicarbonate (Catalog No. S3187, SigmaAldrich, St. Louis, Mo.), 1× GlutaMax™ (Invitrogen Catalog No. 35050-079), 4.5 mM D-Glucose (SigmaAldrich Catalog No. G8769), 100 ng/ml GDF8 (R&D Systems, Minneapolis, Minn.) and 1 μM MCX compound (a GSK3B inhibitor, 14-Prop-2-en-1-yl-3,5,7,14,17,23,27-heptaazatetracyclo [19.3.1.1˜2,6˜0.1˜8,12˜]heptacosa-1(25),2(27),3,5,8(26),9,11,21,23-nonaen-16-one, US Patent Application Publication No. 2010-0015711; incorporated herein by reference in its entirety). Cells were then cultured for additional day in MCDB-131 medium supplemented with 0.1% fatty acid-free BSA, 0.0012 g/ml sodium bicarbonate, 1× GlutaMax™, 4.5 mM D-Glucose, 100 ng/ml GDF8, and 0.1 μM MCX compound. Cells were then cultured for an additional day in MCDB-131 medium supplemented with 0.1% fatty acid-free BSA, 0.0012 g/ml sodium bicarbonate, 1× GlutaMax™, 4.5 mM D-Glucose, and 100 ng/ml GDF8, then • b) Stage 2 (Primitive gut tube—2 days): Cells were treated for two days with MCDB-131 medium supplemented with 0.1% fatty acid-free BSA; 0.0012 g/ml sodium bicarbonate; 1× GlutaMax™; 4.5 mM D-Glucose; 0.25 mM ascorbic acid (Sigma, St. Louis, Mo.) and 25 ng/ml FGF7 (R & D Systems, Minneapolis, Minn.), then • c) Stage 3 (Foregut—2 days): Cells were treated with MCDB-131 medium supplemented with a 1:200 dilution of ITS-X (Invitrogen); 4.5 mM Glucose; 1× GlutaMax™; 0.0017 g/ml sodium bicarbonate; 2% fatty acid-free BSA; 0.25 μM SANT-1 (Sigma, St. Louis, Mo.); 10 ng/ml of Activin-A (R & D Systems); 1 μM retinoic acid (RA; Sigma); 25 ng/ml FGF7; 0.25 mM ascorbic acid; 200 nM TPB (a PKC activator; Catalog No. 565740; EMD Chemicals, Gibstown, N.J.); 10 μM forskolin (FSK, Sigma), and 100 nM LDN (a BMP receptor inhibitor; Catalog No. 04-0019; Stemgent; San Diego, Calif.) for day 1. On day 2, cells were treated with MCDB-131 medium supplemented with a 1:200 dilution of ITS-X; 4.5 mM Glucose; 1× GlutaMax™; 0.0017 g/ml sodium bicarbonate; 2% fatty acid-free BSA; 0.25 μM SANT-1; 10 ng/ml of Activin A; 1 μM RA; 25 ng/ml FGF7; 0.25 mM ascorbic acid, 200 nM TPB, 10 μM forskolin and 10 nM LDN, then • d) Stage 4 (Pancreatic foregut precursor—2 days); Cells were treated with MCDB-131 medium supplemented with a 1:200 dilution of ITS-X; 4.5 mM Glucose; 1× GlutaMax™; 0.0015 g/ml sodium bicarbonate; 2% fatty acid-free BSA; 0.25 μM SANT-1; 50 nM RA; 50 nM LDN-193189; 10 μM forskolin; 0.25 mM ascorbic acid; and 100 nM TPB for two days, then • e) Stage 5 (Pancreatic endoderm/endocrine—3 days): Stage 4 cells were treated with MCDB-131 medium supplemented with a 1:200 dilution of ITS-X; 20 mM Glucose; 1× GlutaMax™; 0.0015 g/ml sodium bicarbonate; 2% fatty acid-free BSA; 0.25 μM SANT-1; 50 nM RA; 10 μM forskolin; 0.25 mM ascorbic acid for three days, with the addition of 100 nM ALk5 inhibitor SD-208 (disclosed in Molecular Pharmacology 2007, 72:152-161) for days 2-3 only.
At day 1 of stage 5, the factors listed in Table I, below, were spiked into the media and upon completion of S5 (day 3 of stage 5) mRNA was collected for PCR analysis of relevant pancreatic endoderm/endocrine genes. As a control, cultures were treated only with the S5 media listed above. […]

B1: Ephrin-A4: Ephrin ligand protein, R & D Systems catalogue number 369-EA (protein, UniProt P52798 26-170, looked up)
Ephrin-A4: LRHVVYWNSSNPRLLRGDAVVELGLNDYLDIVCPHYEGPGPPEGPETFALYMVDWPGYESCQAEGPRAYKRWVCSLPFGHVQFSEKIQRFTPFSLGFEFLPGETYYYISVPTPESSGQCLRLQVSVCCKERKSESAHPVGSPGES
B1: the PDX1 expression entry (Ephrin-A4 100 ng/ml at S5, mRNA at day 3 of S5, vs control, FIG. 1E) is given as “minimal impact”. Further, the NGN3 expression result (Ephrin-A4 100 ng/ml at S5, mRNA at day 3 of S5, vs control, FIG. 1G) was “minimal impact”. In addition, where the note is “factor spiked at day 1 of stage 5, mRNA at day 3 of S5, vs control cultures, Table I: Ephrin-A4 100 ng/ml, Activin A and Activin C 20 ng/ml, FIG. 1A”, the “mRNA expression of insulin” value was “enhanced”. Also, the “mRNA expression of NKX6.1” value (factor spiked at day 1 of stage 5, mRNA at day 3 of S5, vs control cultures, Table I: Ephrin-A4 100 ng/ml, Semaphorin 3a 50 ng/ml, Epigen 20 ng/ml, FIG. 1F) was “enhanced”.
